Results from publication PMC5349851, “Combinatorial bZIP dimers display complex DNA-binding specificity landscapes”.

Experiments:
[1] = molecular target: T1, CEBPG (human, UniProt P53567); assay: EMSA-FRET; homodimer; EMSA-FRET: 50 nM each labeled protein, 10 nM DNA, 50 mM potassium phosphate pH 7.4, 150 mM KCl, 0.1% BSA, 0.1% Tween-20, 5 ng/ul poly(dI-dC), 0.5 mM TCEP; 37 C; conditions: protein: recombinant; fluorescein or TAMRA; chain copies: 2; label: 5' TYE 665; blunt
T1 sequence: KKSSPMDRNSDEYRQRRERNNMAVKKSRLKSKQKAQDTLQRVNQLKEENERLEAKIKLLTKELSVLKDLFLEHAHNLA

[2] = molecular target: T2, BATF3;JUN (human;human, UniProt Q9NR55;P05412 ;, |); assay: EMSA-FRET; heterodimer; comparable to CRE-L; EMSA-FRET: 50 nM each labeled protein, 10 nM DNA, 50 mM potassium phosphate pH 7.4, 150 mM KCl, 0.1% BSA, 0.1% Tween-20, 5 ng/ul poly(dI-dC), 0.5 mM TCEP; 37 C; conditions: protein: recombinant;recombinant; fluorescein or TAMRA; chain copies: 2;2; label: 5' TYE 665; blunt
[3] = molecular target: T3, ATF2;BATF3 (human;human, UniProt P15336;Q9NR55 ;, |); assay: as above; conditions: protein: recombinant;recombinant; fluorescein or TAMRA; copies: 1;1; label: 5' TYE 665; blunt
T3 sequence 1: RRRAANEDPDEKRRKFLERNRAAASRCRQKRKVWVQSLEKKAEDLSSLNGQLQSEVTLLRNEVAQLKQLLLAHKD
T3 sequence 2: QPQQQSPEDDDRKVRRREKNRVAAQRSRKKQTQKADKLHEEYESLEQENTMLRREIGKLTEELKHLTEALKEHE

[4] = molecular target: T4, XBP1 (human, UniProt P17861); assay: EMSA-FRET; homodimer; comparable to CRE-L; EMSA-FRET: 50 nM each labeled protein, 10 nM DNA, 50 mM potassium phosphate pH 7.4, 150 mM KCl, 0.1% BSA, 0.1% Tween-20, 5 ng/ul poly(dI-dC), 0.5 mM TCEP; 37 C; conditions: protein: recombinant; fluorescein or TAMRA; chain copies: 2; label: 5' TYE 665; blunt
T4 sequence: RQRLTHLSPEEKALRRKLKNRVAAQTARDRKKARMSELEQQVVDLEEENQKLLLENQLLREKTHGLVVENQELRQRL

[5] = molecular target: T5, JUN (human, UniProt P05412); assay: EMSA-FRET; homodimer; EMSA-FRET: 50 nM each labeled protein, 10 nM DNA, 50 mM potassium phosphate pH 7.4, 150 mM KCl, 0.1% BSA, 0.1% Tween-20, 5 ng/ul poly(dI-dC), 0.5 mM TCEP; 37 C; conditions: protein: recombinant; fluorescein or TAMRA; chain copies: 2; label: 5' TYE 665; blunt
[6] = molecular target: T6, ATF3 (human, UniProt P18847); assay: as above; conditions: protein: recombinant; fluorescein or TAMRA; chain copies: 2; label: 5' TYE 665; blunt
T6 sequence: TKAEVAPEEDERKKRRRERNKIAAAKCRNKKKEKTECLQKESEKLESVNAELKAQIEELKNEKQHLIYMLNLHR

[7] = molecular target: T7, BATF3 (human, UniProt Q9NR55); assay: as above; conditions: protein: recombinant; fluorescein or TAMRA; chain copies: 2; label: 5' TYE 665; blunt
T7 sequence: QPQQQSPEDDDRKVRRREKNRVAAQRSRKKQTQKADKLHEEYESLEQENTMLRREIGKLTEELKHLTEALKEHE

[8] = molecular target: ATF3;CEBPA (human;human, UniProt P18847;P49715 ;, |); assay: EMSA-FRET; heterodimer; EMSA-FRET: 50 nM each labeled protein, 10 nM DNA, 50 mM potassium phosphate pH 7.4, 150 mM KCl, 0.1% BSA, 0.1% Tween-20, 5 ng/ul poly(dI-dC), 0.5 mM TCEP; 37 C; conditions: protein: recombinant;recombinant; fluorescein or TAMRA; chain copies: 2;2; label: 5' TYE 665; blunt
[9] = molecular target: BATF3;CEBPA (human;human, UniProt Q9NR55;P49715 ;, |); assay: as above; conditions: protein: recombinant;recombinant; fluorescein or TAMRA; chain copies: 2;2; label: 5' TYE 665; blunt
[10] = molecular target: T8, ATF3;CEBPG (human;human, UniProt P18847;P53567 ;, |); assay: as above; conditions: protein: recombinant;recombinant; fluorescein or TAMRA; chain copies: 2;2; label: 5' TYE 665; blunt
T8 sequence 1: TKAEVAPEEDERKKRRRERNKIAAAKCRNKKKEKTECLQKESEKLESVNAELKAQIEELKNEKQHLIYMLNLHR
T8 sequence 2: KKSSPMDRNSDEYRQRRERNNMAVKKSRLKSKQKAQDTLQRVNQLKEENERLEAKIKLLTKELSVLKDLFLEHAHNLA

[11] = molecular target: T2, BATF3;JUN; assay: as above; conditions: protein: recombinant;recombinant; fluorescein or TAMRA; chain copies: 2;2; label: 5' TYE 665; blunt
[12] = molecular target: T4, XBP1; assay: EMSA-FRET; homodimer; comparable to CRE; EMSA-FRET: 50 nM each labeled protein, 10 nM DNA, 50 mM potassium phosphate pH 7.4, 150 mM KCl, 0.1% BSA, 0.1% Tween-20, 5 ng/ul poly(dI-dC), 0.5 mM TCEP; 37 C; conditions: protein: recombinant; fluorescein or TAMRA; chain copies: 2; label: 5' TYE 665; blunt
[13] = molecular target: T3, ATF2;BATF3; assay: EMSA-FRET; heterodimer; comparable to CRE; EMSA-FRET: 50 nM each labeled protein, 10 nM DNA, 50 mM potassium phosphate pH 7.4, 150 mM KCl, 0.1% BSA, 0.1% Tween-20, 5 ng/ul poly(dI-dC), 0.5 mM TCEP; 37 C; conditions: protein: recombinant;recombinant; fluorescein or TAMRA; copies: 1;1; label: 5' TYE 665; blunt
[14] = molecular target: T5, JUN; assay: EMSA-FRET; homodimer; no detectable affinity; EMSA-FRET: 50 nM each labeled protein, 10 nM DNA, 50 mM potassium phosphate pH 7.4, 150 mM KCl, 0.1% BSA, 0.1% Tween-20, 5 ng/ul poly(dI-dC), 0.5 mM TCEP; 37 C; conditions: protein: recombinant; fluorescein or TAMRA; chain copies: 2; label: 5' TYE 665; blunt

T2 sequence (P05412 243-316, one chain of several): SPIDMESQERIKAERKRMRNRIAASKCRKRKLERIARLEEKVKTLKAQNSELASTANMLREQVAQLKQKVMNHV
T5 sequence (P05412 243-316): as the sequence (P05412 243-316, one chain of several) above
Sequence of BATF3;CEBPA (P49715 273-345, one chain of several): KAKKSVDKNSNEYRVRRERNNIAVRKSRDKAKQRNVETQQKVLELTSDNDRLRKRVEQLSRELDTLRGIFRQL
Sequence of ATF3;CEBPA (P49715 273-345, one chain of several): as above

B1: CAAT (dsDNA)
DNA 1: GAGTCCATTGCGCAATCCGTAG
DNA 2: CTACGGATTGCGCAATGGACTC
Does B1 bind [1]?
Result: binds

B2: CRE (dsDNA)
DNA 1: GAGTCCATGACGTCATCCGTAG
DNA 2: CTACGGATGACGTCATGGACTC
Which results are given for B2?
binding result [2]: binds; binding result [3]: binds; binding result [4]: binds; binding result [5]: binds; binding result [6]: binds; binding result [7]: binds

B3: AP1/CAAT (TRE-CAAT) (dsDNA)
DNA 1: GAGTCCATGAGCAATCCGTAG
DNA 2: CTACGGATTGCTCATGGACTC
Does B3 bind [8]?
Result: binds

B4: CREA/CAAT (CRE-L-CAAT) (dsDNA)
DNA 1: GAGTCCGCCACGCAATCCGTAG
DNA 2: CTACGGATTGCGTGGCGGACTC
Does B4 bind [9]?
Result: binds

B5: CRE/CAAT (dsDNA)
DNA 1: GAGTCCATGACGCAATCCGTAG
DNA 2: CTACGGATTGCGTCATGGACTC
Does B5 bind [10]?
Result: binds

B6: CRE-L (dsDNA)
DNA 1: GAGTCCATGACGTGGCCCGTAG
DNA 2: CTACGGGCCACGTCATGGACTC
Does B6 bind [11]?
Result: binds

Does B6 bind [12]?
Result: binds

Does B6 bind [13]?
Result: binds

Does B6 bind [14]?
Result: no binding

Does B6 bind [7]?
Result: no binding
